Reference: US20250186614A1, “COMPACT DRUG RESPONSIVE DOMAINS FOR REGULATION OF FUNCTION/ABUNDANCE AND DELIVERY OF POLYPEPTIDE PAYLOADS” (OBSIDIAN THERAPEUTICS, INC., priority 2022, published 2025)

Assays:
FKBP13 = target: T1, FKBP13 (Homo sapiens, UniProt P26885); settings: read-out: binding affinity for FKBP13; cited from earlier work
T1 sequence (P26885 22-142): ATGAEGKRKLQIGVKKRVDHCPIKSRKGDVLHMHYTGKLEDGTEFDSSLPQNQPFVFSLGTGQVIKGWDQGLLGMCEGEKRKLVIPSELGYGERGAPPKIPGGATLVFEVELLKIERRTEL

Jurkat cells [1] = assay: Tacrolimus serum experiments: dose response of FKBP13 constructs under different serum concentrations, GFP MFI; assay type: cell-based; settings: increasing FBS, FIGS. 51-54
Experimental: Incubation with increasing FBS results in 2 fold increase in Ec50 with 80% FBS.

[2] = clinically approved dosages 0.1-0.3 mg/kg of body weight, tissue/organ transplants; cited from earlier work
HEK293 cells = assay: Tacrolimus dose response of FKBP13 constructs transiently transfected into HEK293 cells, Celigo Image Cytometer; assay type: cell-based; settings: for performance / drug responsiveness in tacrolimus dose response: FIGS. 5, 6, 8
Description: In another experiment, several FKBP13 DRD constructs were transiently transfected into HEK293 cells, as described above, and analyzed using a Celigo Image Cytometer (Nexcelom, Lawrence, MA).
To test the effects of other substitutions instead of methionine at residue number 54 and leucine at position 93 FKBP13 DRD constructs were generated and were transiently transfected into HEK293 cells, as described above, and analyzed using a Celigo Image Cytometer (Nexcelom, Lawrence, MA).
In another experiment, to explore the possibility of further truncating FKBP13, constructs (FKBP-044, FKBP-083, FKBP-084, FKBP-085, and FKBP-086) were transiently transfected into HEK293 cells, as described above, and analyzed using a Celigo Image Cytometer (Nexcelom, Lawrence, MA). A combination of DRD-genic M54A with truncation of the N-terminal histidine lowers basal (FKBP-083).
In another experiment, several constructs (FKBP-044, FKBP-092, FKBP-093, FKBP-094, FKBP-095, FKBP-096 and FKBP-097) designed to explore additional DRD-genic mutations were transiently transfected into HEK293 cells, as described above, and analyzed using a Celigo Image Cytometer (Nexcelom, Lawrence, MA).
Other constructs (FKBP-091, FKBP-098, FKBP-099, FKBP-100, and FKBP-101) were transiently transfected into HEK293 cells, as described above, and analyzed using a Celigo Image Cytometer (Nexcelom, Lawrence, MA).
(§1) In another experiment, several constructs (FKBP-091, FKBP-102, FKBP-103, FKBP-104, FKBP-105 and FKBP-106), designed to combine the binding site mutation identified in FKBP-091 with novel DRD-genic mutations, were transiently transfected into HEK293 cells, as described above, and analyzed using a Celigo Image Cytometer (Nexcelom, Lawrence, MA). […]
as §1, with “several other” for “several”, “FKBP-107, FKBP-108, FKBP-109, FKBP-110,” for “FKBP-102, FKBP-103, FKBP-104, FKBP-105”, “FKBP-111),” for “FKBP-106),”

Jurkat cells [3] = assay: Tacrolimus dose response of FKBP13-AcGFP-mCherry constructs stably transduced into Jurkat cells, GFP MFI by flow cytometry; assay type: cell-based
How it was run: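 GFP geometric MFI was read by flow cytometry in mCherry+ cells and curve-fitted against tacrolimus dose. Cells were Jurkat E6-1, lentivirus-transduced with FKBP13-AcGFP-mCherry fusion constructs until 10-25% mCherry-positive on day 5 post-transduction.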

Jurkat cells [4] = assay: Sirolimus (rapamycin) dose response of FKBP13 constructs stably transduced into Jurkat cells, flow cytometry; assay type: cell-based; settings: rapamycin, Table 14
Experimental: Normalized EC50 values were calculated from the mCherry normalized GFP MFI values, which accounted for any differences in mCherry intensity between samples.

[5] = tacrolimus dose response, Jurkat cells stably transduced (FIG. 10), Table 5

For `C=CC[C@@H]1/C=C(\C)C[C@H](C)C[C@H](OC)[C@H]2O[C@@](O)(C(=O)C(=O)N3CCCC[C@H]3C(=O)O[C@H](/C(C)=C/[C@@H]3CC[C@@H](O)[C@H](OC)C3)[C@H](C)[C@@H](O)CC1=O)[C@H](C)C[C@@H]2OC` [Tacrolimus, tacrolimus], the Kd (FKBP13) is listed as 166 nM, the “increase in Ec50 with 80% FBS” value (Jurkat cells [1]) is listed as 2 fold and the Cmax [2] is listed as 20 to 68 ng/mL.

B1: FKBP-083: FKBP13 trunc1 DRD Q72R, Q84E, A117H, M54A; SEQ ID NO: 33 (protein)
chain: CPIKSRKGDVLHAHYTGKLEDGTEFDSSLPRNQPFVFSLGTGEVIKGWDQGLLGMCEGEKRKLVIPSELGYGERGHPPKIPGGATLVFEVELLKIER
modifications: truncated (trunc1); Description of sequence: FKBP13-AcGFP-mCherry Fusion; Construct Name: FKBP-083; FKBP13 DRD in Construct : FKBP13 trunc1 (mutated to match FKBP12 active site - Q72R Q84E A117H) (DRD - M54A)
In the case of B1, the Basal (HEK293 cells; FIG. 7) is reported as “lowers basal”.

B2: FKBP-068: FKBP13 DRD Q72R, Q84E, A117H, M54S; SEQ ID NO: 24 (protein)
chain: HCPIKSRKGDVLHSHYTGKLEDGTEFDSSLPRNQPFVFSLGTGEVIKGWDQGLLGMCEGEKRKLVIPSELGYGERGHPPKIPGGATLVFEVELLKIER
modifications: Description of sequence: FKBP13-AcGFP-mCherry Fusion; Construct Name: FKBP-068; FKBP13 DRD in Construct : FKBP13 (mutated to match FKBP12 active site - Q72R Q84E A117H) (DRD - M54S)
In the case of B2, the “Fold Change” value (Jurkat cells [3]; [5]) is reported as 43.62 and the “performance / drug responsiveness in tacrolimus dose response” value (HEK293 cells) is reported as “closest in performance to the original M54A substitution”.

B3: FKBP-091: FKBP13 DRD Q72R, Q84E, A117W, M54A; SEQ ID NO: 41 (protein)
chain: HCPIKSRKGDVLHAHYTGKLEDGTEFDSSLPRNQPFVFSLGTGEVIKGWDQGLLGMCEGEKRKLVIPSELGYGERGWPPKIPGGATLVFEVELLKIER
modifications: Description of sequence: FKBP13-AcGFP-mCherry Fusion; Construct Name: FKBP-091; FKBP13 DRD in Construct : FKBP13 (mutated to match FKBP12 active site Q72R Q84E A117W) (DRD - M54A)
With B3 the EC90 (Jurkat cells [3]; read-out: Tacrolimus EC90 (Norm), tacrolimus, normalized, Table 14) was 117 nM, the EC90 (Jurkat cells [3]; read-out: Tacrolimus EC90, tacrolimus, Table 14) was 111 nM and the “Fold Change” value (Jurkat cells [3]; [5]) was 12.36. The “Fold Change” value (Jurkat cells [3]; tacrolimus, Jurkat cells stably transduced, Table 6) was 11.29, the “Tacrolimus FC” value (Jurkat cells [3]; tacrolimus, fold change, Table 14) was 12.4 and the “performance / drug responsiveness in tacrolimus dose response” value (HEK293 cells) was “superior drug responsiveness”. The EC90 (Jurkat cells [4]; read-out: Rapamycin EC90) was 398 nM, the “Rapamycin FC” value (Jurkat cells [4]; fold change) was 3.2 and the EC90 (Jurkat cells [4]; normalized, read-out: Rapamycin EC90 (Norm)) was 414 nM.
